# Tested on: Escherichia coli TOP10
# Experiment: shrunken log2 fold change of peptide-encoding DNA abundance (4.5 h post-induction vs induction); higher = less antimicrobial activity (less host growth inhibition)
# Conditions: time post-induction: 4.5 h; library: site-saturation at positions 5, 18, 19, 20
# 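Also: peptides expressed intracellularly from a pBAD plasmid library in pooled LB shake-flask culture, induced with 0.3% L-arabinose, DNA abundance read by NGS, three biological replicates, DESeq2 with apeglm shrinkage.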
row,Sequence,shrunken log2 fold change
1,RRIRQRPPRLPRPRPRPMHIPRP,-0.377
2,RRIRARPPRLPRPRPRPRPAPRP,0.76
3,RRIRIRPPRLPRPRPRPGRMPRP,0.198
4,RRIRQRPPRLPRPRPRPKEKPRP,0.00902
5,RRIRNRPPRLPRPRPRPCVGPRP,-0.129
6,RRIRCRPPRLPRPRPRPSFKPRP,-0.75
7,RRIRSRPPRLPRPRPRPIQKPRP,0.0496
8,RRIRGRPPRLPRPRPRPRKFPRP,0.399
9,RRIRARPPRLPRPRPRPRMMPRP,0.229
10,RRIRSRPPRLPRPRPRPYKKPRP,-0.0605
11,RRIRSRPPRLPRPRPRPMGRPRP,0.0253
12,RRIRKRPPRLPRPRPRPHRVPRP,0.34
13,RRIRRRPPRLPRPRPRPTIRPRP,0.129
14,RRIRLRPPRLPRPRPRPAYLPRP,-0.304
15,RRIRLRPPRLPRPRPRPNEYPRP,-0.321
16,RRIRLRPPRLPRPRPRPKDQPRP,-0.271
17,RRIRFRPPRLPRPRPRPNCLPRP,-0.0273
18,RRIRARPPRLPRPRPRPKPQPRP,0.533
19,RRIRKRPPRLPRPRPRPECAPRP,0.339
20,RRIRYRPPRLPRPRPRPVSMPRP,-0.00201
21,RRIRMRPPRLPRPRPRPDKCPRP,-0.0194
22,RRIRNRPPRLPRPRPRPNMGPRP,-0.00804
23,RRIRKRPPRLPRPRPRPVILPRP,-0.612
24,RRIRFRPPRLPRPRPRPTKGPRP,-0.0144
25,RRIRRRPPRLPRPRPRPQLNPRP,0.159

row,Sequence,shrunken log2 fold change
1,RRIRNRPPRLPRPRPRPMVKPRP,-0.00408
2,RRIRLRPPRLPRPRPRPAEGPRP,0.242
3,RRIRSRPPRLPRPRPRPHCMPRP,-0.344
4,RRIRQRPPRLPRPRPRPRERPRP,0.553
5,RRIRDRPPRLPRPRPRPPRIPRP,0.185
6,RRIRHRPPRLPRPRPRPKTHPRP,-0.314
7,RRIRCRPPRLPRPRPRPVNRPRP,-0.0405
8,RRIRHRPPRLPRPRPRPEMGPRP,0.00396
9,RRIRRRPPRLPRPRPRPFHPPRP,0.111
10,RRIRCRPPRLPRPRPRPCVRPRP,-0.163
11,RRIRGRPPRLPRPRPRPYMNPRP,-0.23
12,RRIRHRPPRLPRPRPRPNHKPRP,-0.973
13,RRIRQRPPRLPRPRPRPVAEPRP,0.478
14,RRIRERPPRLPRPRPRPRVQPRP,0.00573
15,RRIRRRPPRLPRPRPRPRMGPRP,0.136
16,RRIRTRPPRLPRPRPRPCCRPRP,0.0338
17,RRIRHRPPRLPRPRPRPTMHPRP,-0.0232
18,RRIRNRPPRLPRPRPRPRVAPRP,0.111
19,RRIRHRPPRLPRPRPRPCTVPRP,-0.0523
20,RRIRKRPPRLPRPRPRPRWEPRP,0.0207
21,RRIRRRPPRLPRPRPRPMLDPRP,0.116
22,RRIRYRPPRLPRPRPRPAMQPRP,-0.0244
23,RRIRPRPPRLPRPRPRPDIWPRP,0.144
24,RRIRLRPPRLPRPRPRPDCEPRP,0.0566
25,RRIRVRPPRLPRPRPRPSIVPRP,-0.364

row,Sequence,shrunken log2 fold change
1,RRIRGRPPRLPRPRPRPDFSPRP,0.313
2,RRIRDRPPRLPRPRPRPANSPRP,2.98
3,RRIRKRPPRLPRPRPRPMNYPRP,0.474
4,RRIRDRPPRLPRPRPRPTFWPRP,0.588
5,RRIRGRPPRLPRPRPRPQHKPRP,-0.00366
6,RRIRARPPRLPRPRPRPFMVPRP,-0.235
7,RRIRHRPPRLPRPRPRPHHKPRP,-0.556
8,RRIRCRPPRLPRPRPRPDRHPRP,0.0552
9,RRIRRRPPRLPRPRPRPDDRPRP,0.0215
10,RRIRKRPPRLPRPRPRPDMAPRP,0.0491
11,RRIRWRPPRLPRPRPRPPTCPRP,0.614
12,RRIRYRPPRLPRPRPRPWNWPRP,-0.252
13,RRIRQRPPRLPRPRPRPNRIPRP,-0.0402
14,RRIRIRPPRLPRPRPRPVARPRP,0.223
15,RRIRHRPPRLPRPRPRPMFAPRP,-0.245
16,RRIRWRPPRLPRPRPRPMPAPRP,0.995
17,RRIRVRPPRLPRPRPRPDYHPRP,-0.558
18,RRIRKRPPRLPRPRPRPHNSPRP,-0.24
19,RRIRHRPPRLPRPRPRPIDHPRP,-0.267
20,RRIRGRPPRLPRPRPRPKQVPRP,0.541
21,RRIRCRPPRLPRPRPRPNQSPRP,2.47
22,RRIRYRPPRLPRPRPRPKVAPRP,-0.013
23,RRIRWRPPRLPRPRPRPKSMPRP,-0.0141
24,RRIRERPPRLPRPRPRPCIIPRP,-0.449
25,RRIRRRPPRLPRPRPRPGWEPRP,0.393

row,Sequence,shrunken log2 fold change
1,RRIRARPPRLPRPRPRPQQPPRP,0.0738
2,RRIRTRPPRLPRPRPRPHWQPRP,-0.0496
3,RRIRNRPPRLPRPRPRPLSIPRP,-0.423
4,RRIRMRPPRLPRPRPRPFWSPRP,-0.123
5,RRIRNRPPRLPRPRPRPSSWPRP,0.0908
6,RRIRIRPPRLPRPRPRPQYMPRP,-1.02
7,RRIRGRPPRLPRPRPRPLMAPRP,1.39
8,RRIRKRPPRLPRPRPRPWFQPRP,-0.0934
9,RRIRYRPPRLPRPRPRPPWTPRP,-0.343
10,RRIRLRPPRLPRPRPRPKTAPRP,0.037
11,RRIRRRPPRLPRPRPRPDQDPRP,-0.0033
12,RRIRPRPPRLPRPRPRPKCKPRP,-0.207
13,RRIRIRPPRLPRPRPRPKRKPRP,-0.105
14,RRIRNRPPRLPRPRPRPHTNPRP,0.0886
15,RRIRNRPPRLPRPRPRPTIQPRP,-0.213
16,RRIRLRPPRLPRPRPRPMWMPRP,-0.00116
17,RRIRFRPPRLPRPRPRPDPDPRP,-0.113
18,RRIRWRPPRLPRPRPRPPYCPRP,-0.0779
19,RRIRHRPPRLPRPRPRPEMCPRP,-0.206
20,RRIRARPPRLPRPRPRPPTHPRP,0.398
21,RRIRHRPPRLPRPRPRPKIAPRP,0.00548
22,RRIRMRPPRLPRPRPRPESYPRP,-0.00254
23,RRIRGRPPRLPRPRPRPCKKPRP,0.00863
24,RRIRIRPPRLPRPRPRPGLGPRP,0.217
25,RRIRCRPPRLPRPRPRPMATPRP,0.0993

row,Sequence,shrunken log2 fold change
1,RRIRPRPPRLPRPRPRPSEAPRP,-0.0726
2,RRIRGRPPRLPRPRPRPEAMPRP,0.59
3,RRIRWRPPRLPRPRPRPRWMPRP,0.1
4,RRIRYRPPRLPRPRPRPINEPRP,-0.181
5,RRIRHRPPRLPRPRPRPRMSPRP,-0.0693
6,RRIRCRPPRLPRPRPRPVFCPRP,-0.131
7,RRIRSRPPRLPRPRPRPQNPPRP,-0.296
8,RRIRTRPPRLPRPRPRPGFEPRP,0.613
9,RRIRQRPPRLPRPRPRPVAFPRP,-0.0706
10,RRIRARPPRLPRPRPRPVEPPRP,0.297
11,RRIRNRPPRLPRPRPRPCPGPRP,0.00341
12,RRIRFRPPRLPRPRPRPHNKPRP,0.0525
13,RRIRVRPPRLPRPRPRPFLSPRP,-0.567
14,RRIRKRPPRLPRPRPRPRCFPRP,0.412
15,RRIRGRPPRLPRPRPRPYSMPRP,0.00971
16,RRIRPRPPRLPRPRPRPPDFPRP,-0.256
17,RRIRIRPPRLPRPRPRPMHYPRP,-0.434
18,RRIRTRPPRLPRPRPRPNWAPRP,-0.243
19,RRIRCRPPRLPRPRPRPEEHPRP,-0.0578
20,RRIRWRPPRLPRPRPRPVIFPRP,1.32
21,RRIRSRPPRLPRPRPRPQQMPRP,-0.155
22,RRIRDRPPRLPRPRPRPRGPPRP,0.366
23,RRIRARPPRLPRPRPRPHPEPRP,0.7
24,RRIRTRPPRLPRPRPRPGLYPRP,0.194
25,RRIRQRPPRLPRPRPRPQIAPRP,-0.133

row,Sequence,shrunken log2 fold change
1,RRIRMRPPRLPRPRPRPGGEPRP,1
2,RRIRNRPPRLPRPRPRPKGGPRP,0.226
3,RRIRVRPPRLPRPRPRPHTGPRP,-0.495
4,RRIRFRPPRLPRPRPRPNKWPRP,-0.266
5,RRIRNRPPRLPRPRPRPYGMPRP,-0.331
6,RRIRIRPPRLPRPRPRPKDHPRP,-0.222
7,RRIRGRPPRLPRPRPRPYHAPRP,0.142
8,RRIRCRPPRLPRPRPRPQYRPRP,-2.05
9,RRIRYRPPRLPRPRPRPKSVPRP,-0.187
10,RRIRIRPPRLPRPRPRPWSVPRP,-0.541
11,RRIRERPPRLPRPRPRPNDFPRP,-0.0161
12,RRIRWRPPRLPRPRPRPQGVPRP,0.198
13,RRIRIRPPRLPRPRPRPENRPRP,-0.176
14,RRIRQRPPRLPRPRPRPCFDPRP,-0.103
15,RRIRKRPPRLPRPRPRPGPPPRP,0.922
16,RRIRPRPPRLPRPRPRPNPTPRP,0.0721
17,RRIRDRPPRLPRPRPRPIFGPRP,0.0916
18,RRIRGRPPRLPRPRPRPTDSPRP,0.526
19,RRIRCRPPRLPRPRPRPNECPRP,-0.37
20,RRIRWRPPRLPRPRPRPATDPRP,0.258
21,RRIRKRPPRLPRPRPRPFAWPRP,0.462
22,RRIRTRPPRLPRPRPRPMMLPRP,0.00466
23,RRIRSRPPRLPRPRPRPLHMPRP,0.0919
24,RRIRYRPPRLPRPRPRPFREPRP,-0.35
25,RRIRNRPPRLPRPRPRPCMAPRP,-0.346

# Source: the supplement of paper PMC9112550, “Optimization of the antimicrobial peptide Bac7 by deep mutational scanning” (BMC Biology, 2022)
